Source: the MegaScale stability set (Tsuboyama et al. 2023)

B1: r4_43_TrROS_Hall (parent)
chain: DLVTIKVPLENLEEIKKAAEKAGFKIVSISYDKENKEVTIVIEKKK

Variants of: B1
Experiment: folding stability dG (cDNA display proteolysis); higher = more stable
Conditions: PBS, room temperature

Folding stability dG [kcal/mol], by site and new letter:
A18: R 3.72 | S 3.65 | D 3.57 | L 3.55 | C 3.97 | V 3.73 | E 3.65 | G 3.34 | F 3.45 | Y 3.84 | H 3.77 | Q 3.62 | P 1.8 | M 3.94 | N 3.5 | I 3.67 | T 3.43 | K 3.86 | W 4.29
A19: M 3.95 | G 3.23 | I 3.61 | H 3.45 | N 3.55 | Q 3.37 | V 3.97 | P 1.44 | Y 3.68 | R 3.11 | S 3.69 | D 1.76 | F 3.52 | L 3.69 | E 2.89 | K 3.32 | T 3.8 | W 3.99 | C 3.44
K17: N 3.17 | S 3.72 | L 3.73 | W 4.21 | C 3.75 | E 3.45 | M 3.82 | I 3.8 | V 3.69 | A 3.56 | H 3.83 | Y 4.27 | Q 3.75 | D 3.44 | T 3.65 | P 2.14 | G 3.73 | R 3.43 | F 4
I15: R 3.42 | F 4.13 | W 4.14 | L 3.71 | A 4.01 | S 3.41 | H 3.73 | V 3.87 | M 3.42 | P 1.54 | E 3.39 | C 3.45 | N 3.08 | Q 3.58 | T 3.38 | G 3.06 | K 3.37 | Y 3.88 | D 2.44
E13: P 3.52 | V 3.61 | S 3.54 | L 3.9 | Q 3.6 | R 3.2 | W 4.08
